IntAct's records for PubMed 15385968

B1: DNA repair protein XRCC4 (Homo sapiens), Q13426 (parent)
chain: MERKISRIHLVSEPSITHFLQVSWEKTLESGFVITLTDGHSAWTGTVSESEISQEADDMAMEKGKYVGELRKALLSGAGPADVYTFNFSKESCYFFFEKNLKDVSFRLGSFNLEKVENPAEVIRELICYCLDTIAENQAKNEHLQKENERLLRDWNDVQGRFEKCVSAKEALETDLYKRFILVLNEKKTKIRSLHNKLLNAAQEREKDIKQEGETAICSEMTADRDPVYDESTDEESENQTDLSGLASAAVSKDDSIISSLDVTDIAPSRKRRQRMQRNLGTEPKMAPQENQLQEKENSRPDSSLPETSKKEHISAENMSLETLRNSSPEDLFDEI

Variants of: B1
Settings: with pnkp_human PNKP

Q: Which “effect of a mutation on the interaction” value does the source give for T233A here?
A: disrupting interaction
